# From the supplement of paper PMC10567573
# B1: TRIB1 (parent)
# chain: SYVRSRKRLREEEAARLFKQIVSA
# B2: CD207 (parent)
# chain: MTVEKEAPDAHFTVDKQNISLWPR
# Variants of: B1
# Test: protein stability index of a GFP-peptide fusion (GPS, HEK-293T) (PSI 1-6); higher = more stable
# Conditions: c terminus: a fixed tail appended
# 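Further: lentivirally expressed fusions sorted by FACS into six bins by GFP to DsRed ratio, PSI derived from sequencing read proportions per bin multiplied by bin number.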
row,Variant,protein stability index
1,MYVRSRKRLREEEAARLFKQIVSA,1.82
2,NYVRSRKRLREEEAARLFKQIVSA,2.2
3,KYVRSRKRLREEEAARLFKQIVSA,2.98
4,RYVRSRKRLREEEAARLFKQIVSA,1.95
5,AYVRSRKRLREEEAARLFKQIVSA,2.07
6,YYVRSRKRLREEEAARLFKQIVSA,1.41
7,EYVRSRKRLREEEAARLFKQIVSA,1.5
8,FYVRSRKRLREEEAARLFKQIVSA,1.45
9,PYVRSRKRLREEEAARLFKQIVSA,2.1
10,VYVRSRKRLREEEAARLFKQIVSA,1.65
11,QYVRSRKRLREEEAARLFKQIVSA,1.58
12,DYVRSRKRLREEEAARLFKQIVSA,1.88
13,SYYRSRKRLREEEAARLFKQIVSA,1.98
14,SYERSRKRLREEEAARLFKQIVSA,1.83
15,SYWRSRKRLREEEAARLFKQIVSA,1.61
16,SYFRSRKRLREEEAARLFKQIVSA,2.64
17,SYCRSRKRLREEEAARLFKQIVSA,1.71
18,SYTRSRKRLREEEAARLFKQIVSA,2.12
19,SYGRSRKRLREEEAARLFKQIVSA,1.3
20,SYKRSRKRLREEEAARLFKQIVSA,1.99
21,SYHRSRKRLREEEAARLFKQIVSA,1.22
22,SYSRSRKRLREEEAARLFKQIVSA,2.36

row,Variant,protein stability index
1,SYDRSRKRLREEEAARLFKQIVSA,2.05
2,SYMRSRKRLREEEAARLFKQIVSA,1.58
3,SYNRSRKRLREEEAARLFKQIVSA,2.08
4,SYRRSRKRLREEEAARLFKQIVSA,2.63
5,SYARSRKRLREEEAARLFKQIVSA,1.68
6,SYIRSRKRLREEEAARLFKQIVSA,1.69
7,SYLRSRKRLREEEAARLFKQIVSA,2.08
8,SGVRSRKRLREEEAARLFKQIVSA,1.83
9,SMVRSRKRLREEEAARLFKQIVSA,2.91
10,SFVRSRKRLREEEAARLFKQIVSA,1.54
11,SNVRSRKRLREEEAARLFKQIVSA,2.83
12,SIVRSRKRLREEEAARLFKQIVSA,1.78
13,SQVRSRKRLREEEAARLFKQIVSA,2.48
14,SHVRSRKRLREEEAARLFKQIVSA,2.58
15,SRVRSRKRLREEEAARLFKQIVSA,2.17
16,SSVRSRKRLREEEAARLFKQIVSA,1.9
17,STVRSRKRLREEEAARLFKQIVSA,2.38
18,SWVRSRKRLREEEAARLFKQIVSA,1.25
19,SKVRSRKRLREEEAARLFKQIVSA,2.14
20,SVVRSRKRLREEEAARLFKQIVSA,2.33
21,SAVRSRKRLREEEAARLFKQIVSA,2.5
22,SYVASRKRLREEEAARLFKQIVSA,1.41

# Variants of: B2
# Test: as above
# Conditions: c terminus: a fixed tail appended
row,Variant,protein stability index
1,MTVEKEAPDAHFTVDKQNISNWPR,3.43
2,MTVEKEAPDAHFTVDKQNISQWPR,3.85
3,MTVEKEAPDAHFTVDKQNISDWPR,4.22
4,MTVEKEAPDAHFTVDKQNISVWPR,3.09
5,MTVEKEAPDAHFTVDKQNISPWPR,4.11
6,MTVEKEAPDAHFTVDKQNISMWPR,3.81
7,MTVEKEAPDAHFTVDKQNISYWPR,3.39
8,MTVEKEAPDAHFTVDKQNISRWPR,3.7
9,MTVEKEAPDAHFTVDKQNISKWPR,3.72
10,MTVEKEAPDAHFTVDKQNISTWPR,3.01
11,MTVEKEAPDAHFTVDKQNISIWPR,3.79
12,MTVEKEAPDAHFTVDKQNISWWPR,3.12
13,MTVEKEAPDAHFTVDKQNISHWPR,4.06
14,MTVEKEAPDAHFTVDKQNISFWPR,3.25
15,MTVEKEAPDAHFTVDKQNISSWPR,3.53
16,MTVEKEAPDAHFTVDKQNISCWPR,3.64
17,MTVEKEAPDAHFTVDKRNISLWPR,2.76
18,MTVEKEAPDAHFTVDKPNISLWPR,3.21
19,MTVEKEAPDAHFTVDKNNISLWPR,2.97
20,MTVEKEAPDAHFTVDKYNISLWPR,1.94
21,MTVEKEAPDAHFTVDKKNISLWPR,3.36
22,MTVEKEAPDAHFTVDKINISLWPR,2.48
23,MTVEKEAPDAHFTVDKWNISLWPR,1.56
24,MTVEKEAPDAHFTVDKHNISLWPR,3.05

row,Variant,protein stability index
1,MTVEKEAPDAHFTVDKENISLWPR,3.26
2,MTVEKEAPDAHFTVDKSNISLWPR,2.31
3,MTVEKEAPDAHFTVDKGNISLWPR,3.38
4,MTVEKEAPDAHFTVDKTNISLWPR,3.14
5,MTVEKEAPDAHFTVDKMNISLWPR,2.15
6,MTVEKEAPDAHFTVDKFNISLWPR,1.89
7,MTVEKEAPDAHFTVDKVNISLWPR,2.39
8,MTVEKEAPDAHFTVDKLNISLWPR,2.64
9,MTVEKEAPDAHFTVDKQNIVLWPR,2.71
10,MTVEKEAPDAHFTVDKQNIALWPR,3.3
11,MTVEKEAPDAHFTVDKQNIGLWPR,3.29
12,MTVEKEAPDAHFTVDKQNIFLWPR,3.04
13,MTVEKEAPDAHFTVDKQNITLWPR,3.43
14,MTVEKEAPDAHFTVDKQNIELWPR,3.33
15,MTVEKEAPDAHFTVDKQNICLWPR,3.39
16,MTVEKEAPDAHFTVDKQNIRLWPR,3.3
17,MTVEKEAPDAHFTVDKQNIMLWPR,2.81
18,MTVEKEAPDAHFTVDKQNIDLWPR,4.04
19,MTVEKEAPDAHFTVDKQNIYLWPR,2.69
20,MTVEKEAPDAHFTVDKQNILLWPR,2.48
21,MTVEKEAPDAHFTVDKQNIQLWPR,3.1
22,MTVEKEAPDAHFTVDKQNIPLWPR,3.3
23,MTVEKEAPDAHFTVDKQNIWLWPR,2.96
24,MTVEKEAPDAHFTVDKQNIKLWPR,3.55

row,Variant,protein stability index
1,MTVEKEAPDAHFTVDKQNINLWPR,3.07
2,MTVEKEAPDAHFTVDKQNIHLWPR,3.2
3,MTVEKEAPDAHFTVDKQNIILWPR,2.66
4,MTVEKEAPDAHFTVDKQNISLWPP,3.28
5,MTVEKEAPDAHFTVDKQNISLWPQ,3.97
6,MTVEKEAPDAHFTVDKQNISLWPF,3.42
7,MTVEKEAPDAHFTVDKQNISLWPN,4.12
8,MTVEKEAPDAHFTVDKQNISLWPL,2.95
9,MTVEKEAPDAHFTVDKQNISLWPM,2.24
10,MTVEKEAPDAHFTVDKQNISLWPC,3.16
11,MTVEKEAPDAHFTVDKQNISLWPS,3.57
12,MTVEKEAPDAHFTVDKQNISLWPW,2.78
13,MTVEKEAPDAHFTVDKQNISLWPH,3.69
14,MTVEKEAPDAHFTVDKQNISLWPG,3.72
15,MTVEKEAPDAHFTVDKQNISLWPE,4.83
16,MTVEKEAPDAHFTVDKQNISLWPY,2.83
17,MTVEKEAPDAHFTVDKQNISLWPV,3.07
18,MTVEKEAPDAHFTVDKQNISLWPI,2.9
19,MTVEKEAPDAHFTVDKQNISLWPA,3.98
20,MTVEKEAPDAHFTVDKQNISLWPK,3.87
21,MTVEKEAPDAHFTVDKQNISLWPD,4.53
22,MTVEKEAPDAHFTVDKQNISLWPT,3.63
23,MTVEKEAPDAHFTVDKQNISLWAR,3.39
24,MTVEKEAPDAHFTVDKQNISLWIR,2.91

row,Variant,protein stability index
1,MTVEKEAPDAHFTVDKQNISLWSR,2.64
2,MTVEKEAPDAHFTVDKQNISLWTR,2.93
3,MTVEKEAPDAHFTVDKQNISLWQR,3.14
4,MTVEKEAPDAHFTVDKQNISLWMR,2.84
5,MTVEKEAPDAHFTVDKQNISLWDR,4.51
6,MTVEKEAPDAHFTVDKQNISLWKR,3.69
7,MTVEKEAPDAHFTVDKQNISLWLR,2.62
8,MTVEKEAPDAHFTVDKQNISLWER,3.84
9,MTVEKEAPDAHFTVDKQNISLWGR,3
10,MTVEKEAPDAHFTVDKQNISLWYR,2.62
11,MTVEKEAPDAHFTVDKQNISLWHR,2.9
12,MTVEKEAPDAHFTVDKQNISLWCR,2.69
13,MTVEKEAPDAHFTVDKQNISLWNR,3.82
14,MTVEKEAPDAHFTVDKQNISLWFR,2.71
15,MTVEKEAPDAHFTVDKQNISLWRR,3.43
16,MTVEKEAPDAHFTVDKQNISLWWR,2.52
17,MTVEKEAPDAHFTVDKQWISLWPR,2.05
18,MTVEKEAPDAHFTVDKQKISLWPR,3.4
19,MTVEKEAPDAHFTVDKQEISLWPR,3.34
20,MTVEKEAPDAHFTVDKQLISLWPR,2.88
21,MTVEKEAPDAHFTVDKQSISLWPR,3.56
22,MTVEKEAPDAHFTVDKQDISLWPR,3.21
23,MTVEKEAPDAHFTVDKQFISLWPR,3
24,MTVEKEAPDAHFTVDKQTISLWPR,3.62

row,Variant,protein stability index
1,MTVEKEAPDAHFTVDKQCISLWPR,2.44
2,MTVEKEAPDAHFTVDKQMISLWPR,3.5
3,MTVEKEAPDAHFTVDKQYISLWPR,2.97
4,MTVEKEAPDAHFTVDKQQISLWPR,2.86
5,MTVEKEAPDAHFTVDKQRISLWPR,3.14
6,MTVEKEAPDAHFTVDKQHISLWPR,3.46
7,MTVEKEAPDAHFTVDKQVISLWPR,2.29
8,MTVEKEAPDAHFTVDKQAISLWPR,4.24
9,MTVEKEAPDAHFTVDKQGISLWPR,3
10,MTVEKEAPDAHFTVDKQPISLWPR,3.39
11,MTVEKEAPDAHFTVDKQIISLWPR,1.95
12,MTVEKEAPDAHFTVDKQNISLHPR,4.21
13,MTVEKEAPDAHFTVDKQNISLKPR,4.99
14,MTVEKEAPDAHFTVDKQNISLYPR,3.83
15,MTVEKEAPDAHFTVDKQNISLMPR,4.19
16,MTVEKEAPDAHFTVDKQNISLLPR,4.42
17,MTVEKEAPDAHFTVDKQNISLSPR,4.69
18,MTVEKEAPDAHFTVDKQNISLVPR,4.32
19,MTVEKEAPDAHFTVDKQNISLIPR,4.73
20,MTVEKEAPDAHFTVDKQNISLDPR,4.85
21,MTVEKEAPDAHFTVDKQNISLCPR,4.08
22,MTVEKEAPDAHFTVDKQNISLRPR,4.1
23,MTVEKEAPDAHFTVDKQNISLAPR,4.63
24,MTVEKEAPDAHFTVDKQNISLTPR,4.34

row,Variant,protein stability index
1,MTVEKEAPDAHFTVDKQNISLNPR,4.4
2,MTVEKEAPDAHFTVDKQNISLPPR,4.64
3,MTVEKEAPDAHFTVDKQNISLQPR,4.29
4,MTVEKEAPDAHFTVDKQNISLEPR,5.08
5,MTVEKEAPDAHFTVDKQNISLGPR,4.35
6,MTVEKEAPDAHFTVDKQNISLFPR,3.91
7,MTVEKEAPDAHFTVDKQNSSLWPR,3.45
8,MTVEKEAPDAHFTVDKQNGSLWPR,3.13
9,MTVEKEAPDAHFTVDKQNLSLWPR,3.35
10,MTVEKEAPDAHFTVDKQNYSLWPR,3.41
11,MTVEKEAPDAHFTVDKQNCSLWPR,3.76
12,MTVEKEAPDAHFTVDKQNESLWPR,4.47
13,MTVEKEAPDAHFTVDKQNDSLWPR,4.22
14,MTVEKEAPDAHFTVDKQNQSLWPR,3.84
15,MTVEKEAPDAHFTVDKQNMSLWPR,3.67
16,MTVEKEAPDAHFTVDKQNNSLWPR,4.39
17,MTVEKEAPDAHFTVDKQNFSLWPR,4.08
18,MTVEKEAPDAHFTVDKQNVSLWPR,3.98
19,MTVEKEAPDAHFTVDKQNRSLWPR,3.99
20,MTVEKEAPDAHFTVDKQNKSLWPR,4.35
21,MTVEKEAPDAHFTVDKQNPSLWPR,4
22,MTVEKEAPDAHFTVDKQNHSLWPR,4.29
23,MTVEKEAPDAHFTVDKQNASLWPR,4.25
24,MTVEKEAPDAHFTVDKQNTSLWPR,3.79
